Results published in US20220227829A1 (SHANGHAI GP BIOTECH, published 2022).
Positions count from the first letter of the chain named. Names and notes keep the numbering of the source. Read-outs that look alike come from different tables or passages of the source.

T1: CD25 on the surface of CTLL-2 cells (mouse cytotoxic T lymphocyte cell line) (mouse) (UniProt P01590)
T1 sequence (looked up): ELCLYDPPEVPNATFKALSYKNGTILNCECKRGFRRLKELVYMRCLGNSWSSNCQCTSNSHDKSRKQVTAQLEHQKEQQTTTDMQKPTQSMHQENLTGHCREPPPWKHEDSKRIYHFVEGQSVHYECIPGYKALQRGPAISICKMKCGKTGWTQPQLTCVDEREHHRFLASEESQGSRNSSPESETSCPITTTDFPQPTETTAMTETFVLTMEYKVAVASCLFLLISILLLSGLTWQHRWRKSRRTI

T2: CD25 protein (from Example 2)
T2 chain: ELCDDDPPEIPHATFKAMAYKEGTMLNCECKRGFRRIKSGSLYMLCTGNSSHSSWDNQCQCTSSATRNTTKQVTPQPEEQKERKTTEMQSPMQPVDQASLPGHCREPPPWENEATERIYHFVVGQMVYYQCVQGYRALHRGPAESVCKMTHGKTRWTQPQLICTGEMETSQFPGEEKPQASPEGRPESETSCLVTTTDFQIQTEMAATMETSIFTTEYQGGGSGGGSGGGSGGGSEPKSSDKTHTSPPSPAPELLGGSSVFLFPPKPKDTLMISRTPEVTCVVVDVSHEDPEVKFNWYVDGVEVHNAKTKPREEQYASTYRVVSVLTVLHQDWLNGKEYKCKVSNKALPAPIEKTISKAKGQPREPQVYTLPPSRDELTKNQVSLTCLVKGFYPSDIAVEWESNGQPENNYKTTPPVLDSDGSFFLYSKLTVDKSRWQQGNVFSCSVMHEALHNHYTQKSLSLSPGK

T3: CD25 on the surface of CTLL-2 cells (mouse cytotoxic T lymphocyte cell line) (mouse, UniProt P01590 22-268)
T3 sequence (looked up): T1 sequence (looked up)

T4: CD25 on the surface of NK92 cells (human NK cell line) (human, UniProt P01589 22-272)
T4 sequence (looked up): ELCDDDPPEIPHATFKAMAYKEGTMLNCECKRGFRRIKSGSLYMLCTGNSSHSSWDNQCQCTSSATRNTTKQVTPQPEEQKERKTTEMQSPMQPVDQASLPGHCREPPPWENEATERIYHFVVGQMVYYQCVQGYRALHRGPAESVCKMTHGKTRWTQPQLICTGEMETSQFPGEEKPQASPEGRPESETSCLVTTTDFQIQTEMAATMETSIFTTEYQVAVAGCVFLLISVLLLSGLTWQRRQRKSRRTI

B1: IL-2gm4 (T3A, K49N, A73T), IgG1-Fc tag (Fc fusion)
chain: APASSSTKKTQLQLEHLLLDLQMILNGINNYKNPKLTRMLTFKFYMPKNATELKHLQCLEEELKPLEEVLNLTQSKNFHLRPRDLISNINVIVLELKGSETTFMCEYADETATIVEFLNRWITFAQSIISTLTGGGSGGGSGGGSGGGSEPKSSDKTHTSPPSPAPELEGGSSVFLFPPKPKDTLMISRTPEVTCVVVDVSHEDPEVKFNWYVDGVEVHNAKTKPREEQYASTYRVVSVLTVLHQDWLNGKAYACAVSNKALPAPIEKTISKAKGQPREPQVYTLPPSREEMTKNQVSLTCLVKGFYPSDIAVEWESNGQPENNYKTTPPVLDSDGSFFLYSKLTVDKSRWQQGNVFSCSVMHEALHNHYTQKSLSLSPGK
B2: IL-2gm10 (T3A, M39N, D109N), HIS tag (ligand)
chain: APASSSTKKTQLQLEHLLLDLQMILNGINNYKNPKLTRNLTFKFYMPKKATELKHLQCLEEELKPLEEVLNLAQSKNFHLRPRDLISNINVIVLELKGSETTFMCEYANETATIVEFLNRWITFAQSIISTLTHHHHHH
notes: Expressed in Expi293F cells; also called IL-2gm10-His
B3: IL-2gm14 (T3A, M39N, A73T, D109N), HIS tag (ligand)
chain: B2 chain with A73T
notes: Expressed in Expi293F cells; also called IL-2gm14-His
B4: IL-2gm15 (T3A, M39N, K49N, D109N), HIS tag (ligand)
chain: B2 chain with K49N
notes: Expressed in Expi293F cells; also called IL-2gm15-His
B5: IL-2gm5 (T3A, M39N, K49N, A73T), IgG1-Fc tag (Fc fusion)
chain: APASSSTKKTQLQLEHLLLDLQMILNGINNYKNPKLTRNLTFKFYMPKNATELKHLQCLEEELKPLEEVLNLTQSKNFHLRPRDLISNINVIVLELKGSETTFMCEYADETATIVEFLNRWITFAQSIISTLTEPKSSDKTHTSPPSPAPELEGGSSVFLFPPKPKDTLMISRTPEVTCVVVDVSHEDPEVKFNWYVDGVEVHNAKTKPREEQYASTYRVVSVLTVLHQDWLNGKAYACAVSNKALPAPIEKTISKAKGQPREPQVYTLPPSREEMTKNQVSLTCLVKGFYPSDIAVEWESNGQPENNYKTTPPVLDSDGSFFLYSKLTVDKSRWQQGNVFSCSVMHEALHNHYTQKSLSLSPGK
B6: IL-2qm (T3A, F42A, Y45A, L72G), IgG1-Fc tag (Fc fusion)
chain: B5 chain with N39M, F42A, Y45A, N49K, L72G, T73A
notes: copies 2 rests on that; also called IL-2qm-Fc; Rocheglicat (CN103492411B)
B7: IL-2gm6 (T3A, M39N, K49N, A73T, D109N), IgG1-Fc tag (Fc fusion)
chain: B5 chain with D109N

How the values were obtained:
[1] = biological target: T1, CD25 on the surface of CTLL-2 cells (mouse cytotoxic T lymphocyte cell line) (mouse); assay: cell-based or functional assay
[2] = biological target: CD25 on the surface of NK92 cells (human NK cell line) (human) (UniProt P01589); assay: cell-based or functional assay
[3] = biological target: T2, CD25 protein (from Example 2); assay: ELISA on coated CD25
Experimental: (§1) CD25 (from Example 2) was coated on a 96-well high adsorption microtiter plate (3590, Costar), washed and blocked. The sample to be tested was diluted to an appropriate concentration and added to wells.

[4] = biological target: T3, CD25 on the surface of CTLL-2 cells …; assay: cell-based or functional assay
[5] = biological target: T4, CD25 on the surface of NK92 cells …; assay: cell-based or functional assay
[6] = biological target: T2, CD25 protein (from Example 2); assay: ELISA on coated CD25, sample at 1 ug/ml, relative to rhIL-2 = 100%
Experimental: as §1

[7] = biological target: T2, CD25 protein (from Example 2); assay: ELISA on coated CD25, sample at 0.2 ug/ml, relative to rhIL-2 = 100%
Experimental: as §1

[8] = biological target: T2, CD25 protein (from Example 2); assay: ELISA on coated CD25, sample at 0.04 ug/ml, relative to rhIL-2 = 100%
Experimental: as §1

[9] = biological target: T3, CD25 on the surface of CTLL-2 cells …; assay: cell-based or functional assay; remark: listed apart in the source
[10] = biological target: T4, CD25 on the surface of NK92 cells …; assay: cell-based or functional assay; remark: listed apart in the source

| Binder | EC50 (nM), CTLL-2 cell proliferation [1] | Potency relative to rhIL-2 (%), CTLL-2 cell proliferation [1] | EC50 (nM), NK92 cell proliferation [2] | Potency relative to rhIL-2 (%), NK92 cell proliferation [2] | binding result [3] | EC50 (nM), CTLL-2 cell proliferation [4] | Potency relative to rhIL-2 (%), CTLL-2 cell proliferation [4] | EC50 (nM), NK92 cell proliferation [5] | Potency relative to rhIL-2 (%), NK92 cell proliferation [5] | Binding activity (%) [6] | Binding activity (%) [7] | Binding activity (%) [8] | Potency relative to rhIL-2 (%), CTLL-2 cell proliferation [9] | EC50 (nM), NK92 cell proliferation [10] | Potency relative to rhIL-2 (%), NK92 cell proliferation [10] |
| --- | --- | --- | --- | --- | --- | --- | --- | --- | --- | --- | --- | --- | --- | --- | --- |
| B1 | 0.00919 nM | 31.5% | 0.0152 nM | 34.8% |  |  |  |  |  |  |  |  |  |  |  |
| B2 |  |  |  |  | no binding (tested: 1 ug/ml) | 15.6 nM | 0.019% | 12.7 nM | 0.015% | 0.88% | 1.08% | 1.51% |  |  |  |
| B3 |  |  |  |  | no binding (tested: 1 ug/ml) | 47.9 nM | 0.006% | 23.2 nM | 0.008% | 0.74% | 0.99% | 1.51% |  |  |  |
| B4 |  |  |  |  | no binding (tested: 1 ug/ml) | 16.5 nM | 0.018% | 7.76 nM | 0.025% | 0.68% | 0.99% | 1.36% |  |  |  |
| B5 | 0.173 nM | 1.68% | 0.0711 nM | 7.42% |  |  |  |  |  |  |  |  |  |  |  |
| B6 |  |  |  |  | no binding (tested: 1 ug/ml) |  |  |  |  | 0.74% | 0.99% | 1.51% | 0% | 0.306 nM | 1.73% |
| B7 | 5.95 nM | 0.049% | 0.824 nM | 0.641% |  |  |  |  |  |  |  |  |  |  |  |
